± gives the uncertainty stated by the source.

This passage reports abundance fitness results from the Human Domainome abundance scans (Beltran et al. 2025).

The labels stand for the following.
B1: Poly(rC)-binding protein 1, residues 278 to 350; numbered along this chain, Q15365 (parent)
chain: TQTTHELTIPNNLIGCIIGRQGANINEIRQMSGAQIKIANPVEGSSGRQVTITGSAASISLAQYLINARLSSE

This data set covers variants of B1. The data set can be described thus: abundance fitness (aPCA) (normalised: wild type 0, dead -1); higher = more abundant; growth selection in yeast, the domain comes from the species named. The note with it: Homo sapiens.
In the case of I18P, the abundance fitness is -0.808 ± 0.1.
Next, I18F: -0.321 ± 0.13; I18T: -0.218 ± 0.054; I18Q: -0.756 ± 0.087.
Next, I18K: -0.435 ± 0.07; I18L: -0.355 ± 0.041; I18W: -0.232 ± 0.047.
On to I28G, for which the abundance fitness was -0.78 ± 0.083.
Next, I28Q: -0.683 ± 0.2.
Next, I28D: -0.524 ± 0.2.
Next, I28C: -0.633 ± 0.17; G19V: -0.991 ± 0.12; G19I: -0.583 ± 0.25.
For G19H, the abundance fitness is -0.833 ± 0.5.
G19W: the abundance fitness was -0.831 ± 0.13.
As for G19D, the abundance fitness was -0.321 ± 0.16.
As for G19N, the abundance fitness is -0.655 ± 0.35.
With G19A the figure was -0.481 ± 0.068; with S45L, -0.011 ± 0.05; with S45Q, -0.054 ± 0.065.
Next, S45K: 0.094 ± 0.076; R29N: 0.037 ± 0.12; R29E: 0.062 ± 0.058.
Next, R29T: -0.085 ± 0.066.
Take R29H: the abundance fitness was -0.225 ± 0.14.
With R29L the figure was -0.386 ± 0.05; with R29P, -0.817 ± 0.19.
Next, Q21G: -0.106 ± 0.041; Q21K: 0.081 ± 0.047.
Next, Q21T: -0.207 ± 0.046; Q21D: -0.134 ± 0.076; Q21Y: -0.217 ± 0.13.
Take R48N: the abundance fitness was -0.368 ± 0.1.
With R48H the figure was -0.118 ± 0.085; with R48C, -0.114 ± 0.05; with R48M, -0.217 ± 0.054.
With R48Q the figure was -0.257 ± 0.058.
With R48A the figure was -0.113 ± 0.04.
For R48V, the abundance fitness is -0.093 ± 0.034.
Next, R48P: -0.714 ± 0.11.
With S60H the figure was 0.051 ± 0.084; with S60I, -0.337 ± 0.22; with S60V, -0.352 ± 0.073.
As to S60F, the abundance fitness is -0.102 ± 0.12.
Next, S60K: -0.047 ± 0.063; A39F: -0.46 ± 0.19.
With A39I the figure was -0.029 ± 0.12; with A39R, -0.17 ± 0.039; with A39V, -0.382 ± 0.046.
For the variant N11L, the abundance fitness was -0.473 ± 0.084.
With N11K the figure was -0.171 ± 0.098; with N11M, -0.28 ± 0.1; with N11E, -0.045 ± 0.061.
Next, N11C: -0.165 ± 0.1; N11T: -0.169 ± 0.084; R20M: -0.138 ± 0.064.
Next, R20A: 0.028 ± 0.038; R20P: 0.155 ± 0.053.
R20Y: the abundance fitness turned out to be 0.019 ± 0.093.
R20K: the abundance fitness was 0.048 ± 0.071.
Next, R20E: 0.012 ± 0.062; L13S: -0.041 ± 0.054; L13G: -0.477 ± 0.038.
Next, L13Y: -0.07 ± 0.14; A23F: 0.044 ± 0.15; A23L: -0.22 ± 0.051.
With S58N the figure was 0.009 ± 0.14; with S58W, -0.949 ± 0.11; with S58Q, 0.08 ± 0.045.
In the case of Q49Y, the abundance fitness is -0.543 ± 0.12.
Turning to Q49C, the abundance fitness came out at 0.006 ± 0.051.
On to Q49A, for which the abundance fitness amounted to 0.006 ± 0.043.
In the case of Q49E, the abundance fitness was -0.204 ± 0.064.
Next, E27Q: 0.028 ± 0.053; E27W: -0.136 ± 0.04.
With E27S the figure was -0.035 ± 0.047.
As to E27G, the abundance fitness is -0.244 ± 0.034.
Next, E27P: -0.704 ± 0.13; E27A: -0.18 ± 0.04; R69E: -0.371 ± 0.16.
With R69G, the abundance fitness was -0.626 ± 0.14.
With N24S the figure was -0.033 ± 0.046; with N24I, -0.06 ± 0.12.
With N24D the figure was -0.003 ± 0.098; with N24V, -0.048 ± 0.046; with N24A, 0.007 ± 0.041.
With P10K the figure was -0.181 ± 0.077; with P10I, -0.696 ± 0.49.
As for P10D, the abundance fitness was -0.363 ± 0.093.
As to P10Q, the abundance fitness was -0.538 ± 0.1.
Next, P10S: -0.274 ± 0.061; H5A: 0.139 ± 0.043; H5T: 0.066 ± 0.085.
With V50G the figure was -0.865 ± 0.089; with V50C, -0.147 ± 0.093.
With V50N the figure was -0.819 ± 0.25; with V50L, -0.069 ± 0.035; with V50W, -0.989 ± 0.2.
Turning to V50I, the abundance fitness stood at 0.047 ± 0.088.
With V50A the figure was -0.639 ± 0.089; with S46H, -0.205 ± 0.084; with S46D, 0.19 ± 0.076.
With S46E the figure was -0.088 ± 0.057.
As to Q2A, the abundance fitness was -0.177 ± 0.041.
With Q2E, the abundance fitness is -0.077 ± 0.044.
Next, Q2T: 0.142 ± 0.051; Q2R: 0.054 ± 0.037; T1I: 0.094 ± 0.084.
Next, T1G: -0.02 ± 0.048; T1P: -0.141 ± 0.15; T1W: -0.287 ± 0.083.
With T1Y the figure was -0.072 ± 0.16.
As to T1K, the abundance fitness was -0.191 ± 0.12.
With T1A the figure was -0.086 ± 0.066.
Next, T1M: 0.058 ± 0.088; T51F: -0.071 ± 0.12; C16H: -0.141 ± 0.094.
Next, C16G: -0.116 ± 0.042; C16P: -0.045 ± 0.065.
As for C16R, the abundance fitness turned out to be 0.138 ± 0.033.
In the case of C16E, the abundance fitness is -0.038 ± 0.059.
Next, C16F: -0.031 ± 0.15; C16I: 0.266 ± 0.1; C16W: -0.092 ± 0.05.
With G22K the figure was -0.329 ± 0.13.
With G22H the figure was -0.122 ± 0.16; with G22C, -0.113 ± 0.05; with G22E, 0.137 ± 0.067.
In the case of G22V, the abundance fitness is -0.703 ± 0.072.
With G22D the figure was -0.249 ± 0.095.
Next, I66Q: -1.16 ± 0.46; I66H: 0.299 ± 0.49.
Next, S32M: -0.703 ± 0.087; S32V: -0.858 ± 0.086; S32P: -0.91 ± 0.26.
Turning to S71Q, the abundance fitness was -0.194 ± 0.11.
Regarding S71R, the abundance fitness was -0.056 ± 0.041.
Next, I14C: -0.252 ± 0.088.
I14G: the abundance fitness is -0.948 ± 0.089.
In the case of I14V, the abundance fitness is -0.116 ± 0.042.
For G44M, the abundance fitness was -0.343 ± 0.068.
Next, G44I: -0.732 ± 0.18; G44P: -0.211 ± 0.054.
With G44C the figure was -0.19 ± 0.12.
With I9G, the abundance fitness is -0.771 ± 0.07.
Consider I9E, for which the abundance fitness was -0.942 ± 0.14.
With I9L the figure was -0.072 ± 0.041.
Next, I9H: -0.039 ± 0.34; I9R: -0.732 ± 0.066.
For I17E, the abundance fitness is -0.782 ± 0.2.
With I17T the figure was -0.6 ± 0.11; with I17L, -0.022 ± 0.039.
Take I17P: the abundance fitness is -1.17 ± 0.24.
With I17V the figure was -0.106 ± 0.05; with I17F, -0.177 ± 0.13; with T3I, -0.345 ± 0.21.
With T3H the figure was 0.147 ± 0.1; with T3L, 0.079 ± 0.047; with T3A, 0.048 ± 0.05.
Next, T3V: 0.023 ± 0.045; T3Y: -0.221 ± 0.17.
Take Q35H: the abundance fitness was 0.138 ± 0.15.
For Q35I, the abundance fitness is -0.104 ± 0.17.
Turning to Q35F, the abundance fitness is -0.233 ± 0.14.
With Q35S the figure was -0.012 ± 0.057; with Q35L, -0.15 ± 0.039.
Next, S55I: -0.882 ± 0.31.
